From US20260132182A1 (published 2026)
Starred links: 1 amine or outer side, 2 acyl side, 3 side chain; linkers in the order of their positions; H or OH if unused. Non-standard residues stand in square brackets, D forms with d. Groups on a side chain read outwards from the residue. *: point of attachment. Butyryl(4-SO2NHCO(CH2)16Tz) = O=C(CCCCCCCCCCCCCCCCc1nnn[nH]1)NS(=O)(=O)CCCC(=O)*; Decanoyl(10-(4-HOOC-PhO)) = O=C(O)c1ccc(OCCCCCCCCCC(=O)*)cc1; C20 diacid = O=C(O)CCCCCCCCCCCCCCCCCCC(=O)*; C18 diacid = O=C(O)CCCCCCCCCCCCCCCCC(=O)*; C16 diacid = O=C(O)CCCCCCCCCCCCCCC(=O)*; γGlu = O=C(O)[C@H](CCC(=O)[*:2])N[*:1]; εLys = N[C@@H](CCCCN[*:1])C(=O)[*:2]; Trx = NC[C@H]1CC[C@H](C(=O)O)CC1; AEEA = NCCOCCOCC(=O)O; Aib = CC(C)(N)C(=O)O

B1: Compound 0101 (peptide)
peptide: HWEGTFTSDVSSYLEEQAARKFIEWLVRGKGEGGGGGGGGGEASELSTAALGRLSAELHELATLPRTETGSGSP
modifications: Lys21 and Lys30 each (10-(4-carboxyphenoxy)decanoyl-gGlu-Ado-Ado); C-terminal amide
B2: Compound 0120 (peptide)
peptide: H[Aib]EGTFTSDVSSYLEEQAAREFIAWLVRGRK([AEEA-AEEA-γGlu-Trx-C20 diacid])GGGGEASELSTAALGRLSAELHELATLPRTETGSGSP-NH2
B3: Compound 0100 (peptide)
peptide: HWEGTFTSDVSSYLEEQAARK([AEEA-AEEA-γGlu-Decanoyl(10-(4-HOOC-PhO))])FIEWLVRGK([AEEA-AEEA-γGlu-Decanoyl(10-(4-HOOC-PhO))])GEGGGGGEASELSTAALGRLSAELHELATLPRTETGSGSP-NH2
B4: Compound 0115 (peptide)
peptide: H[Aib]EGTFTSDVSSYLEEQAAREFIAWLVRGRK([AEEA-AEEA-γGlu-C18 diacid])EASELSTAALGRLSAELHELATLPRTETGSGSP-NH2
B5: Compound 0116 (peptide)
peptide: H[Aib]EGTFTSDVSSYLEEQAARK([AEEA-AEEA-γGlu-C18 diacid])FIAWLVRGRK([AEEA-AEEA-γGlu-C18 diacid])GGEASELSTAALGRLSAELHELATLPRTETGSGSP-NH2
B6: Compound 0105 (peptide)
peptide: H[Aib]EGTFTSDVSSYLEEQAARK([AEEA-AEEA-γGlu-C16 diacid])FIEWLVRGK([AEEA-AEEA-γGlu-C16 diacid])GEGQEPGGASELSTAALGRLSAELHELATLPRTETGSGSP-NH2
B7: Compound 0114 (peptide)
peptide: H[Aib]EGTFTSDVSSYLEEQAAREFIAWLVRGRK([AEEA-AEEA-γGlu-C18 diacid])GGEASELSTAALGRLSAELHELATLPRTETGSGSP-NH2
B8: Compound 0110 (peptide)
peptide: H[Aib]EGTFTSDVSSYLEEQAARK([εLys-AEEA-AEEA-γGlu-C18 diacid])FIAWLVRGK([εLys-AEEA-AEEA-γGlu-C18 diacid])GGGGGGGGGEASELSTAALGRLSAELHELATLPRTETGSGSP-NH2
B9: Compound 0109 (peptide)
peptide: H[Aib]EGTFTSDVSSYLEEQAARK([AEEA-AEEA-γGlu-C18 diacid])FIAWLVRGK([AEEA-AEEA-γGlu-C18 diacid])GGGGGGGGGEASELSTAALGRLSAELHELATLPRTETGSGSP-NH2
B10: Compound 0103 (peptide)
peptide: H[Aib]EGTFTSDVSSYLEEQAAREFIAWLVRGRK(Butyryl(4-SO2NHCO(CH2)16Tz))EASELSTAALGRLSAELHELATLPRTETGSGSP-NH2
B11: Compound 0102 (peptide)
peptide: H[Aib]EGTFTSDVSSYLEEQAAREFIAWLVRGRK(Butyryl(4-SO2NHCO(CH2)16Tz))ELSTAALGRLSAELHELATLPRTETGSGSP-NH2

Biological target: human GLP-1 receptor (human, UniProt P43220 24-463)
Experiment: cell-based or functional assay

In order of falling “Human GLP-1R potency [EC50 (pM)]” value:
1. B10  28.1 pM
2. B11  14.7 pM
3. B2  9.1 pM
4. B1  7.1 pM
5. B3  6.8 pM
6. B9  3.2 pM
7. B8  2.7 pM
8. B4  2.2 pM
9. B5  1.5 pM
10. B6  1.1 pM
11. B7  1 pM

Biological target: T1, human amylin-3 (a) receptor (human, UniProt P30988 25-474; O60896 24-148)
T1 sequence (looked up) 1: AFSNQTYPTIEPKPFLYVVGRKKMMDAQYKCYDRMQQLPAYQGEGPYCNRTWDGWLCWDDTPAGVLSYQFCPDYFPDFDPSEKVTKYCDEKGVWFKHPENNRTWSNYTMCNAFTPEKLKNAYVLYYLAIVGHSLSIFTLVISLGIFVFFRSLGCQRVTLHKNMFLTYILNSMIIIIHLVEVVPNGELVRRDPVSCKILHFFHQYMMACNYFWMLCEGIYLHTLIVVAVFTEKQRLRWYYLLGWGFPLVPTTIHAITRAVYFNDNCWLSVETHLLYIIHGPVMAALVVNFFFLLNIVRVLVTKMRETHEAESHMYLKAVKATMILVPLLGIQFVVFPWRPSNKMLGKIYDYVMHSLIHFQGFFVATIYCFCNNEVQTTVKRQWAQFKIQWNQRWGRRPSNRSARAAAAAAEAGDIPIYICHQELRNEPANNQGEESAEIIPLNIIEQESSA
T1 sequence (looked up) 2: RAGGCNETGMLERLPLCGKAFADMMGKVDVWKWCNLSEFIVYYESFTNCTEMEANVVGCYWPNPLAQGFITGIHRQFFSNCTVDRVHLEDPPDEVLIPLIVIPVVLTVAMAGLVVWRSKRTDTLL
Experiment: cell-based or functional assay

In order of rising “Human AmyR3 potency [EC50 (pM)]” value:
1. B11  9.8 pM
2. B1  10.2 pM
3. B2  10.6 pM
4. B10  11.6 pM
5. B7  17.5 pM
6. B9  19.1 pM
7. B5  21.7 pM
8. B4  22.8 pM
9. B3  30.4 pM
10. B6  30.8 pM
11. B8  40.7 pM
